The record followed here is article PMC2206725, “Characterization of a negative transcriptional element in the BRCA1 promoter”.

The target of the series is GABP alpha (MBP fusion from pMAL-C2);GABP beta (MBP fusion from pMAL-C2) (Homo sapiens;Homo sapiens, UniProt Q06546;Q06547 1-454;1-395, |). Description: EMSA; Bandshift conditions as in ref [16], not given; 6% nondenaturing acrylamide gel; recombinant proteins eluted in 25 mM HEPES pH 7.6, 0.1 mM EDTA, 40 mM KCl, 10%. The following applies: protein: recombinant;recombinant; tags: MBP N-terminal (pMAL-C2 vector);MBP N-terminal (pMAL-C2 vector); copies: 1;1; label: 32P. Background: A gel shift assay detects complexes by their altered migration in electrophoresis.

Changes are numbered by the printed parent chain.

Sequence of GABP alpha (MBP fusion from pMAL-C2);GABP beta (MBP fusion from pMAL-C2) (Q06546 whole entry, chain 1 of 2, the tested form may be a part): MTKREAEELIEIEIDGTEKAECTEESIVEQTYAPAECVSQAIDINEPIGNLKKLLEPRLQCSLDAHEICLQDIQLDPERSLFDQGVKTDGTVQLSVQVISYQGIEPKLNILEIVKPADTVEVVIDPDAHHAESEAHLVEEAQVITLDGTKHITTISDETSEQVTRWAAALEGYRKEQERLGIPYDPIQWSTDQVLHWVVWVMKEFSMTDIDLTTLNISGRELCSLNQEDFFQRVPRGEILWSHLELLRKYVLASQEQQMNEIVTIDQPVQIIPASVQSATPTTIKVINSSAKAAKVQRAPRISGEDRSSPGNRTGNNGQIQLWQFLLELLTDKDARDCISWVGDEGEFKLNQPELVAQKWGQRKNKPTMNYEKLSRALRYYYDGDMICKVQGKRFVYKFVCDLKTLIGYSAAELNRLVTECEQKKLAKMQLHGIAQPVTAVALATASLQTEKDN
Sequence of GABP alpha (MBP fusion from pMAL-C2);GABP beta (MBP fusion from pMAL-C2) (Q06547 whole entry, chain 2 of 2, the tested form may be a part): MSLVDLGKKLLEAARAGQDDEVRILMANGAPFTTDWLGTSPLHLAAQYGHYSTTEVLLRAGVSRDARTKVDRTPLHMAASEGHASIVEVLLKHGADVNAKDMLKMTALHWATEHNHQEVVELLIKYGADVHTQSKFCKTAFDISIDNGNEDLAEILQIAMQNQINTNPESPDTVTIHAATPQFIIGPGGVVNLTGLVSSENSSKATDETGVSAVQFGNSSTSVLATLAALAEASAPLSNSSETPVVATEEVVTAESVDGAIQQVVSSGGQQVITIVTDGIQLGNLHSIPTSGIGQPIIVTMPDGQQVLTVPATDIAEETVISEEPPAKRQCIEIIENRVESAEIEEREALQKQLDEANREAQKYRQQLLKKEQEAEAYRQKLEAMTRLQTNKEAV

B1: UPFR6mGAmUS (dsDNA)
DNA 1: CCTTGGTTTAAGTGGCGGTTTAAAAGCGCGGGAATTACAG
DNA 2: CTGTAATTCCCGCGCTTTTAAACCGCCACTTAAACCAAGG
For B1, the binding result is “no binding”.

B2: UP (dsDNA)
DNA 1: CCTTGGTTTCCGTGGCAACGGAACCTT
DNA 2: AAGGTTCCGTTGCCACGGAAACCAAGG
As to B2, the binding result was “binds”.

B3: UPFR6 (dsDNA)
DNA 1: CCTTGGTTTCCGTGGCAACGGAAAAGCGCGGGAATTACAG
DNA 2: CTGTAATTCCCGCGCTTTTCCGTTGCCACGGAAACCAAGG
As for B3, the binding result is given as “binds”.

B4: UPFR6mUS (dsDNA)
DNA 1: B1 DNA 1 with A10C, A11C
DNA 2: B1 DNA 2 with T30G, T31G
For B4, the binding result is reported as “binds”.

B5: UPFR6mGA (dsDNA)
DNA 1: B3 DNA 1 with C10A, C11A
DNA 2: B3 DNA 2 with G30T, G31T
Regarding B5, the binding result is “no binding”.

B6: UPFR6mUP (dsDNA)
DNA 1: CCTTCTTTTAAGTTTCAACGGAAAAGCGCGGGAATTACAG
DNA 2: CTGTAATTCCCGCGCTTTTCCGTTGAAACTTAAAAGAAGG
Take B6: the binding result was “no binding”.
